The labels stand for the following.
B1: 1245_P01_E07 (scFv) (scFv)
scFv: QVQLVESGGGLVKPGGSLRLSCAASGFTFSDYYMSWIRQAPGKGLEWVSYISSSGSTIYYADSVKGRFTISRDNAKNSLYLQMNSLRAEDTAVYYCARVDYADAFDIWGQGTLVTVSSGGGGSGGGGSGGGASDIQMTQSPSSLSASVGDRVTIACRAGQSIGTYLNWYQQKPGKAPKLLIYVASSLQSGVPSRFSGSGSGTEFTLTISSLQPEDFATYYCQQSYSTLLTFGRGTKVEIK
B2: 1245_P01_G09 (scFv) (scFv)
scFv: QVQLQQSGPGLVKPSQTLSLTCAISGDSVSSNSAAWNWIRQSPSRGLEWLGRTYYGSKWYNEYALSVKSRIIINPDTSKNQFSLQLNSVTPEDTAVYYCARDYYYSMDVWGQGTLVTVSSGGGGSGGGGSGGGASDIVMTQSPSTLSASIGDRVTITCRAGQSISTWLAWYQQKPGKAPKLLIYDASSLESGVPLRFSGSGSGTEFTLAISSLQPDDFATYYCQQSYSTPVTFGQGTKVEIK
B3: 1141_P01_E01 (scFv) (scFv)
scFv: QVQLVQSGAEVKKPGESLKISCKGSGYSFTSYWIGWVRQMPGKGLEWMGIIYPGDSDTRYSPSFQGQVTISADKSISTAYLQWSSLKASDTAMYYCARHQVDTRTADYWGQGTLVTVSSGGGGSGGGGSGGGASQSALTQPASVSGSPGQSVTISCTGTRSDVGGYNYVSWYQHHPGKAPKLMIYEVSNRPSGVSNRFSGSKSGNTASLTISGLQAEDEADYYCSSYTSTSTLVFGGGTKLTVL
B4: 1245_P02_G04 (scFv) (scFv)
scFv: QVQLQQSGPGLVKPSQTLSLTCAISGDSVSSKSAAWNWIRQSPSRGLEWLGRTYYRSKWSTDYAASVKSRITINPDTSKNQLSLQLNSVTPEDTAVYYCARTWSGYVDVWGQGTLVTVSSGGGGSGGGGSGGGASDIQMTQSPPALSASVGDRVTITCRASQDINDWLAWYQHKPGKAPKLLIYDASSLESGVPSRFSGSGSGTEFTLTISSLQPDDFATYYCQQSYSTPQVTFGQGTRLEIK
B5: 1245_P02_F07 (scFv) (scFv)
scFv: QVQLQQSGPGLVKPSQTLSLTCVISGDSVSSNSAAWNWIRQSPSRGLEWLGRTYYRSKWYNDYAVSVKSRITINPDTSKNQFSLQLNSVTPEDTAVYYCARDYYYSMDVWGQGTMVTVSSGGGGSGGGGSGGGASDIQMTQSPSTLSASVGDRVTITCRASQSISSWLAWYQQKPGKAPKLLIYDASSLESGVPLRFSGSGSGTEFTLTISSLQPDDFATYYCQQSHSHPPTFGPGTKVDIK
B6: 1252_P01_C08 (scFv) (scFv)
scFv: EVQLLESGGGLVQPGRSLRLSCAASGFTVSSNYMSWVRQAPGKGLEWVSVIYSGGSTYYADSVKGRFTISRDNSKNTLYLQMNSLRAEDTAVYYCASPIELGAFDIWGQGTLVTVSSGGGGSGGGGSGGGASSYELTQPPSVSVAPGKTARITCGGNNIGSQSVHWYQQKPGQAPMLVIYYDSDRPSGIPERFSGSNSGNTATLTISRVEAGDEADYYCQVWDSSSDHVVFGGGTKLTVL
B7: 1251_P02_G10 (scFv) (scFv)
scFv: EVQLVESGGGLVQPGGSLRLSCAASGFTFSDYYMSWIRQAPGKGLEWVSYISSSGSTIYYADSVKGRFTISRDNAKNSLYLQMNSLRAEDTAVYYCARHSWNDAFDIWGRGTLVTVSSGGGGSGGGGSGGGASDIQMTQSPSSLSASVGDRVTITCRASQSISSHLNWYQQKPGKAPKLLIYAASSLQSGVPSRFSASGSGTDFTLTISSLQPEDFATYYCQQSYSTLLTFGGGTKVEIK
B8: 1251_P02_C05 (scFv) (scFv)
scFv: EVQLLESGGGLVQPGGSLRLSCAASGFTFSSYAMSWVRQAPGKGLEWVSAISGGGGTTYSSDSVKGRFTISRDNSKNTLYLQMNSLRAEDTAVYYCARDSGVAFDIWGQGTLVTVSSGGGGSGGGGSGGGASDIQMTQSPSFLSASVGDRVTITCRASQNIRTWLAWYQQKPGRAPKLLIYDASSLESGVPSRFSGSGSGTDFTLTISSLQPEDFATYYCQQFKRYPPTFGLGTKVEIK
B9: 1139_P01_E04 (scFv) (scFv)
scFv: QVQLQQSGPGLVKPSQTLSLTCAISGDSVSSNSAAWNWIRQSPSRGLEWLGRTYYRSKWYNDYAVSVRSRITINPDTSKNQFSLQLNSVTPEDTAVYYCARSWNDAFDIWGQGTTVTVSSGGGGSGGGGSGGGASDIVMTQSPSTLSASIGDRVTITCRAGQSISTWLAWYQQKPGKAPKLLIYDASSLESGVPLRFSGSGSGTDFTLTISSLQPEDFATYYCQQSYSTPLTFGGGTKVEIK

In this assay the target is L1 (DV1-GV4) soluble heterodimeric γδ TCR antigen, leucine zipper (LZ) format (human). Description: DELFIA affinity ranking with 100 nM biotinylated L1.
Chain of L1 (DV1-GV4) soluble heterodimeric γδ TCR antigen, leucine zipper (LZ) format (human) (main, as listed by the source): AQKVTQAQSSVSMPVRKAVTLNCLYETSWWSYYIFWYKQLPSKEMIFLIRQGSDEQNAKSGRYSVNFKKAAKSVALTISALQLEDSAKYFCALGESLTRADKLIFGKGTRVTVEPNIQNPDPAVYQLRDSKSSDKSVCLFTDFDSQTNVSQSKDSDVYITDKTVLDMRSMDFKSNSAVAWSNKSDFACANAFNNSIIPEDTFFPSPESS
For the molecule B1, the 100 nM L1 (DELFIA signal) (fluorescence units) worked out at 163000.

In turn, B2 had a 100 nM L1 (DELFIA signal) (fluorescence units) of 18400.

In turn, B3 registered a 100 nM L1 (DELFIA signal) (fluorescence units) of 137000.

In turn, B4 came in with a 100 nM L1 (DELFIA signal) (fluorescence units) of 5900.

On to B5, for which the 100 nM L1 (DELFIA signal) (fluorescence units) was determined as 10400.

On to B6, for which the 100 nM L1 (DELFIA signal) (fluorescence units) was found to be 1980.

In the case of B7, the 100 nM L1 (DELFIA signal) (fluorescence units) worked out at 17100.

Take B8: the 100 nM L1 (DELFIA signal) (fluorescence units) came to 65300.

Regarding B9, the 100 nM L1 (DELFIA signal) (fluorescence units) was 23800.

The values above are taken from patent publication US20220290101A1.
